Results from patent publication US20250207166.

What was measured:
[1] = biological target: T1, chalcone synthase-like F (ChSF)
T1 chain: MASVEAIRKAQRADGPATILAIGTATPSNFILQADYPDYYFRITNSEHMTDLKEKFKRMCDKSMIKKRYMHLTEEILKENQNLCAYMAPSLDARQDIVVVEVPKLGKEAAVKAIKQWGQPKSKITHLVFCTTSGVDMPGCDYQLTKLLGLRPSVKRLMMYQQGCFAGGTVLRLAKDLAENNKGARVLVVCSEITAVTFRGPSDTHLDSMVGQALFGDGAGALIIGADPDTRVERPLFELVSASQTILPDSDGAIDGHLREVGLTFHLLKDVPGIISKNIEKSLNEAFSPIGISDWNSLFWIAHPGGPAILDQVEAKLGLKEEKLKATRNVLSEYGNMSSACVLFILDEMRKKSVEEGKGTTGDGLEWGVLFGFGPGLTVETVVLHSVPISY

[2] = biological target: T2, chalcone synthase-like A (ChSA)
T2 chain: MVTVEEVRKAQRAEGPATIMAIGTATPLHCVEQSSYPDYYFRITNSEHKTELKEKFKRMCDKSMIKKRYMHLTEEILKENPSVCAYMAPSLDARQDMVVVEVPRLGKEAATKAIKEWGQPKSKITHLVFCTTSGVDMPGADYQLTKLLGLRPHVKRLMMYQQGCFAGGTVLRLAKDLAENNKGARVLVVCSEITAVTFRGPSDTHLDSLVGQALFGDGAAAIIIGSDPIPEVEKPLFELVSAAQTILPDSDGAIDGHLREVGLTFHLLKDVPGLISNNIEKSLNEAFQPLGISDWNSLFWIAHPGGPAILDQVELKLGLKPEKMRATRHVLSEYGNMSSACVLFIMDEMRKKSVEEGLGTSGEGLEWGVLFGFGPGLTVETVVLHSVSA

[3] = biological target: T3, chalcone synthase-like B (ChSB)
T3 chain: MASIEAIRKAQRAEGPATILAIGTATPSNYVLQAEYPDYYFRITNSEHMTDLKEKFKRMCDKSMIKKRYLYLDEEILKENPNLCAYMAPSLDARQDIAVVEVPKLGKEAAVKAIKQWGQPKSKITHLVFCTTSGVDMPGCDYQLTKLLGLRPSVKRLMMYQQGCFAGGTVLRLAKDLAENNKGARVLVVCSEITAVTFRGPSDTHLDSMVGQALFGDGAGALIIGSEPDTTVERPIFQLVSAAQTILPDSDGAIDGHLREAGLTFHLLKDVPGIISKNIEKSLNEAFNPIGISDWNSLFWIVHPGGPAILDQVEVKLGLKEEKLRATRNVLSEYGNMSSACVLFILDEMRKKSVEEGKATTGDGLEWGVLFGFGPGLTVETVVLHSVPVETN

[4] = biological target: T4, chalcone synthase-like C (ChSC)
T4 chain: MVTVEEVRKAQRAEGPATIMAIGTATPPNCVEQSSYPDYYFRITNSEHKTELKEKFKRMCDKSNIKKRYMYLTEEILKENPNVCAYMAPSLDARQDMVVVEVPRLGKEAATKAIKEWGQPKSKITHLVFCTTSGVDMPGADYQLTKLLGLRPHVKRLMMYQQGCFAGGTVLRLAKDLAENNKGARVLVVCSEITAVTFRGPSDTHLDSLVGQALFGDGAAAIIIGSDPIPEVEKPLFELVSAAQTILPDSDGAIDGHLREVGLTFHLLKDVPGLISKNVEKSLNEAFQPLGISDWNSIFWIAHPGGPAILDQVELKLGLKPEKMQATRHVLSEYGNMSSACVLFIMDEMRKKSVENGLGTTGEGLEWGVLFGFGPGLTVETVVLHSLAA

[5] = biological target: T5, chalcone synthase-like D (ChSD)
T5 chain: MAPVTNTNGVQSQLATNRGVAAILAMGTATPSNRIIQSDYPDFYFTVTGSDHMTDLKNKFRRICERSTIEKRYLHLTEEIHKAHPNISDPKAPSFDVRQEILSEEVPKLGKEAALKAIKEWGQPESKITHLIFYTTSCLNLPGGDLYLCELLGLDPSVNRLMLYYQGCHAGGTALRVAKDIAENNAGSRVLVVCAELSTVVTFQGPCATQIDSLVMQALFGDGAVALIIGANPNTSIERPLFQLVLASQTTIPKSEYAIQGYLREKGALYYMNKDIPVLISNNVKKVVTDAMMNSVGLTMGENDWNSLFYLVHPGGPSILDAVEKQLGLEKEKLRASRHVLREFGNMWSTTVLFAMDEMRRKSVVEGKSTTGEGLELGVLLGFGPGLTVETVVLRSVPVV

B1: chalcone synthase-like E (ChSE) (protein)
chain: MGSLDQDFQPNQVPTIRADAATVLAIGTANPPNCIPQAEFADFYFRVTNSNHMTDLKKKFKRICEKSSIKKRYVHLTEKILNENPNICTFKEPSLTARQNIATEEIPKLGKEAALKAIEEWGRPKSEITHLVFCTIGGAEMPSADYQLVHLLGLNPSVKRFMLYYQGCFAGGSVLRLAKDLAENNVGARVLVVCAEVSIPYFHGPSEAHFDSNLIWQMLCGDGAGAAIVGSNPRKLIERPLFQLVSASQTIVPNSEGAIKGTLSEMGIIFNLVDKVPVLIGNNIENCLEEAFGSLGISNWNSLFWVAHPGGPAILNQIEEKLKLKEEKLKASRHVLSEYGNMSSACVFFILDEMRRRSKEEGKITTGDGLEWGVLFGFGPGLTVETIVLRSISTNEAH
Q: Which “levels of product (QA-TriR-FRX-C9) in N. benthamiana leaves, ChS pairs co-infiltrated” value [1] does the source give for B1 here?
A: Pairing ChSE with ChSA, ChSC, CHSD or CHSF increased the levels of product made compared to either ChSE by itself or to the combination of all ChSs but ChSE

Q: What about the “levels of product (QA-TriR-FRX-C9) in N. benthamiana leaves, ChS pairs co-infiltrated” value [2] of the same protein?
A: Pairing ChSE with ChSA, ChSC, CHSD or CHSF increased the levels of product made compared to either ChSE by itself or to the combination of all ChSs but ChSE

Q: And the “levels of product (QA-TriR-FRX-C9) in N. benthamiana leaves, ChS pairs co-infiltrated (repeat experiment)” value [3]?
A: In a repeat experiment, ChSB paired with ChSE also led to a noticeable increase of product

Q: And the “levels of product (QA-TriR-FRX-C9) in N. benthamiana leaves, ChS pairs co-infiltrated” value [4]?
A: Pairing ChSE with ChSA, ChSC, CHSD or CHSF increased the levels of product made compared to either ChSE by itself or to the combination of all ChSs but ChSE

Q: What about the “levels of QA-TriR-FRX-C9 in N. benthamiana leaves (drop-out of one of six co-infiltrated ChS candidates)” value (other ChS candidates) of the same protein?
A: The levels of QA-TriR-FRX-C9 were not affected except when ChSE was absent

Q: What about the “QA-TriR-FRX-C9 amounts in N. benthamiana leaves, triads of ChSs co-infiltrated” value [5] of the same protein?
A: the triads containing ChSD consistently had higher QA-TriR-FRX-C9 amounts than those without

Q: And the “levels of product (QA-TriR-FRX-C9) in N. benthamiana leaves, ChS pairs co-infiltrated” value [5]?
A: Pairing ChSE with ChSA, ChSC, CHSD or CHSF increased the levels of product made compared to either ChSE by itself or to the combination of all ChSs but ChSE
